From publication PMC3718021 (2013)

Assays:
Assay in all cases: high-speed cosedimentation
γ-actin = γ-actin (Mus musculus, UniProt P63260)
[1] = biological target: platelet actin (85% β-actin, 15% γ-actin) (Homo sapiens, UniProt P60709)
α-skeletal F-actin = α-skeletal F-actin (Oryctolagus cuniculus, UniProt P68135)

Row | Binder | Kd (γ-actin) [µM] | Kd [1] [µM] | Kd (α-skeletal F-actin) [µM]
1 | fascin-2 (protein) MPTNGLHQVLKIQFGLVNDADRYLTAESFGFKVNASAASLKRKQIWVLEPDPGQGTAVLFRSSHLGRYLSAEEDGRVACEMDQPGRDCRFLVLPQPDGRWVLQSEPHGRFFGGIEDRLSCFATAISPAELWTVHLAIHPQAHLLSVSRRRYVHLCLQEDEMAADGDMPWGVDALVTLIFQSRRYCLKSYDSRYLRSDGRLVWEPEAHACYTLEFKAGKLAFKDCDGRYLAPVGPAGTLKAGRNTRPSKDELFDLEQSHPQVVLVAANRRYISVRQGINVSANQDEELGHETFLMQIDQETKKCTFYSSTGGYWTLVTHGGIQATATQVSANTMFEIEWHGRRVALKASNGRFVCMKKNGQLAAISDFVGEDELFTLKLINRPLLVLRGLDGFVCHRRGSNQLDTNRSTYDVFHLSFRDGAYQIRGRGGGFWYTGSHGSVCSDGDLAEDFLFEFRERGRLAIRALSGKYLRGGASGLLRADADLPVGEALWEY | 6.17 | 4.15 | 
2 | fascin-2 S39A (protein) MPTNGLHQVLKIQFGLVNDADRYLTAESFGFKVNASAAALKRKQIWVLEPDPGQGTAVLFRSSHLGRYLSAEEDGRVACEMDQPGRDCRFLVLPQPDGRWVLQSEPHGRFFGGIEDRLSCFATAISPAELWTVHLAIHPQAHLLSVSRRRYVHLCLQEDEMAADGDMPWGVDALVTLIFQSRRYCLKSYDSRYLRSDGRLVWEPEAHACYTLEFKAGKLAFKDCDGRYLAPVGPAGTLKAGRNTRPSKDELFDLEQSHPQVVLVAANRRYISVRQGINVSANQDEELGHETFLMQIDQETKKCTFYSSTGGYWTLVTHGGIQATATQVSANTMFEIEWHGRRVALKASNGRFVCMKKNGQLAAISDFVGEDELFTLKLINRPLLVLRGLDGFVCHRRGSNQLDTNRSTYDVFHLSFRDGAYQIRGRGGGFWYTGSHGSVCSDGDLAEDFLFEFRERGRLAIRALSGKYLRGGASGLLRADADLPVGEALWEY |  | 3.91 | 
3 | fascin-2 (protein, N-terminal flag tag, phalloidin-stabilized F-actin) MPTNGLHQVLKIQFGLVNDADRYLTAESFGFKVNASAASLKRKQIWVLEPDPGQGTAVLFRSSHLGRYLSAEEDGRVACEMDQPGRDCRFLVLPQPDGRWVLQSEPHGRFFGGIEDRLSCFATAISPAELWTVHLAIHPQAHLLSVSRRRYVHLCLQEDEMAADGDMPWGVDALVTLIFQSRRYCLKSYDSRYLRSDGRLVWEPEAHACYTLEFKAGKLAFKDCDGRYLAPVGPAGTLKAGRNTRPSKDELFDLEQSHPQVVLVAANRRYISVRQGINVSANQDEELGHETFLMQIDQETKKCTFYSSTGGYWTLVTHGGIQATATQVSANTMFEIEWHGRRVALKASNGRFVCMKKNGQLAAISDFVGEDELFTLKLINRPLLVLRGLDGFVCHRRGSNQLDTNRSTYDVFHLSFRDGAYQIRGRGGGFWYTGSHGSVCSDGDLAEDFLFEFRERGRLAIRALSGKYLRGGASGLLRADADLPVGEALWEY |  |  | 4.95
4 | fascin-2 p.R109H (protein) MPTNGLHQVLKIQFGLVNDADRYLTAESFGFKVNASAASLKRKQIWVLEPDPGQGTAVLFRSSHLGRYLSAEEDGRVACEMDQPGRDCRFLVLPQPDGRWVLQSEPHGHFFGGIEDRLSCFATAISPAELWTVHLAIHPQAHLLSVSRRRYVHLCLQEDEMAADGDMPWGVDALVTLIFQSRRYCLKSYDSRYLRSDGRLVWEPEAHACYTLEFKAGKLAFKDCDGRYLAPVGPAGTLKAGRNTRPSKDELFDLEQSHPQVVLVAANRRYISVRQGINVSANQDEELGHETFLMQIDQETKKCTFYSSTGGYWTLVTHGGIQATATQVSANTMFEIEWHGRRVALKASNGRFVCMKKNGQLAAISDFVGEDELFTLKLINRPLLVLRGLDGFVCHRRGSNQLDTNRSTYDVFHLSFRDGAYQIRGRGGGFWYTGSHGSVCSDGDLAEDFLFEFRERGRLAIRALSGKYLRGGASGLLRADADLPVGEALWEY |  |  | 5.97
